From PMC9012491, “Engineering the Single Domain Antibodies Targeting Receptor Binding Motifs Within the Domain III of West Nile Virus Envelope Glycoprotein” (Frontiers in Microbiology, 2022)

T1: synthetic analog of the receptor binding motif DIII-1^G299–K307 (West Nile virus; residues agree with …, biotinylated C-terminal lysine)
T1 construct: numbers count on: the E glycoprotein; rDIII is of strain goshawk (GenBank DQ116961.1); also called DIII-1^L299–K307 (so printed in the discussion); source: synthetic peptide (Caslo)
T1 chain: GTTYGVCSK

T2: synthetic analog of the receptor binding motif DIII-2^V371–R388 (West Nile virus; residues agree with …, biotinylated C-terminal lysine)
T2 construct: numbers count on: the E glycoprotein; rDIII is of strain goshawk (GenBank DQ116961.1); source: synthetic peptide (Caslo)
T2 chain: VLIELEPPFGDSYIVVGR


Tests used:
[1] = biological target: T1, synthetic analog of the receptor …; assay: far-Western, overlay or dot blot; dot blot: purified sdAbs (1 μl) spotted on nitrocellulose, blocked with 5% BSA; biotinylated peptide 1 μg/ml in phosphate buffer pH 7.0, 1 h; streptavidin-HRP; details: both partners purified
[2] = biological target: T2, synthetic analog of the receptor …; assay: as above; details: both partners purified

Row | Binder | binding result [1] | binding result [2]
1 | sdAbA6 (VHH) VHH: EVQVVASGGGLVQPGGSLSLSCAASGFTFSGYDMTWVRQAPGKGLEWVSSINSGGGNTNYADSVKGRFTISRDNAKNTLYLQMNSLKPEDTALYYCARRNDYGSLLAALDAWGQGTLVTVS | binds | –
2 | sdAbA10 (VHH, also called sdAbA9) VHH: QVQVLASGGGLVQPGGSLRLSCAASGFTFSSNAMSWVRQAPGKGLEWVSTINSGGSRTTYTDSVKGRFTISRDNAKNTLYLQMNSLKPDDTAVYYCAKARVDLNLHGWGTSYEYDYWGQGTLVTVS | – | binds
3 | sdAbA1 (VHH) VHH: QVQLLASGPGLVKPSQTLSLTCTVSGGAITSGYYGWSWIRQPPGKELEWMGVIASSGSTYYSPSLKSRTSISRDTSKSQFTLQLSSVTPEDTAVYYCARDAIQGPNFLYDYWGQGTLVTVS | binds | –
